Source: paper PMC7725820, “Heme biosynthesis depends on previously unrecognized acquisition of iron-sulfur cofactors in human amino-levulinic acid dehydratase” (Nature Communications, 2020)
Residue numbers refer to the chain shown, from its start.

B1: N-terminally MBP-tagged human ALAD, wild type (MBP-ALAD) (enzyme, UniProt P13716 1-330, looked up)
chain: MQPQSVLHSGYFHPLLRAWQTATTTLNASNLIYPIFVTDVPDDIQPITSLPGVARYGVKRLEEMLRPLVEEGLRCVLIFGVPSRVPKDERGSAADSEESPAIEAIHLLRKTFPNLLVACDVCLCPYTSHGHCGLLSENGAFRAEESRQRLAEVALAYAKAGCQVVAPSDMMDGRVEAIKEALMAHGLGNRVSVMSYSAKFASCFYGPFRDAAKSSPAFGDRRCYQLPPGARGLALRAVDRDVREGADMLMVKPGMPYLDIVREVKDKHPDLPLAVYHVSGEFAMLWHGAQAGAFDLKAAVLEAMTAFRRAGADIIITYYTPQLLQWLKEE
notes: aminolevulinic acid dehydratase (ALAD), human, wild type; One [Fe4S4] cluster per monomer when purified anaerobically; The three cofactor states (Fe-S, apo, zinc) are told apart by the assay; the ~480 kD hexamer fits it; also called ALAD WT; [Fe4S4]-ALAD; source: E. coli BL21(DE3), expressed along with the A. vinelandii isc operon, purified anaerobically (amylose resin); also purified …
B2: MBP-ALAD C162A (enzyme, human, UniProt P13716 1-330, looked up)
chain: B1 chain with C162A
notes: aminolevulinic acid dehydratase (ALAD), human; source: E. coli BL21(DE3), expressed along with the isc operon, purified anaerobically (amylose resin); not shown: MBP, N-terminal, kept
B3: MBP-ALAD K252M (enzyme, human, UniProt P13716 1-330, looked up)
chain: B1 chain with K252M
notes: as for B2
B4: MBP-ALAD Mut AFR-AAA (enzyme, human, UniProt P13716 1-330, looked up)
chain: B1 chain with F307A, R308A
notes: aminolevulinic acid dehydratase (ALAD), human, Ala306-Phe307-Arg308 motif replaced by alanines; source: E. coli BL21(DE3), expressed along with the isc operon, purified anaerobically (amylose resin); not shown: MBP, N-terminal, kept
B5: MBP-ALAD C223A (enzyme, human, UniProt P13716 1-330, looked up)
chain: B1 chain with C223A
notes: as for B2
B6: MBP-ALAD C119A (enzyme, human, UniProt P13716 1-330, looked up)
chain: B1 chain with C119A
notes: as for B2
B7: MBP-ALAD C122A (enzyme, human, UniProt P13716 1-330, looked up)
chain: B1 chain with C122A
notes: as for B2
B8: MBP-ALAD C132A (enzyme, human, UniProt P13716 1-330, looked up)
chain: B1 chain with C132A
notes: as for B2
B9: MBP-ALAD C124A (enzyme, human, UniProt P13716 1-330, looked up)
chain: B1 chain with C124A
notes: as for B2

Molecular target: the molecule itself
Assay: native gel or EMSA; NativePAGE Bis-Tris gel; aerobically purified, EDTA-treated metal-free wild-type ALAD (aero-apo-ALAD WT)

Stoichiometry N, 6:
B1

Molecular target: the molecule itself
Assay: native gel or EMSA; NativePAGE Bis-Tris gel; MBP-ALAD proteins expressed along with the isc operon in E. coli and purified anaerobically

Stoichiometry N, 6:
B2, B3, B4, B5, B6, B7, B8, B9
